The record followed here is the nanobody polyreactivity screen of Harvey et al. (2022).

The data set is described as follows: yeast display, Sf9 membrane polyspecificity reagent, FACS + sequencing; frameworks hold sequencing errors. The method, boiled down: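 Nanobodies came from a synthetic yeast display library in Saccharomyces cerevisiae BJ5465, induced with galactose for 36–48 hours and stained for 1 hour at 4 °C with 10% biotinylated, detergent-solubilized Sf9 membrane reagent. Cells were enriched on streptavidin microbeads and then FACS-sorted, with low and high (top ~1%) gates set on anti-HA fluorescence for expression and streptavidin fluorescence for reagent binding. Each polyreactivity label reflects the gate a clone came from. Genes were amplified by colony PCR, sequenced by MiSeq 2 × 250 and filtered by CDR length.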
As to “KVQLVESGGGLVQAGGSLRISCAASGIIFLGYAMGWYRQAPGKERELVAGISSRGGSTYYADSVKGRFTISRDNAKNTVYLQMNSLKPADSAVYYCAAVSRGSGRDYWGQGTQVTVSS”, the “polyreactivity (PSR sort gate)” value is reported as “high polyreactivity”. In the case of “KVQLVESGGGLVQAGGSLRISCAASGITFNPYAMGWYRQAAGKERELVAAISRRGGSTNYADSVKGRFTISRDNAKNTVYLQMNSLKPEDTAVYDCNRDYPIGYRHDPVYYWGQGTQVTVSS”, the “polyreactivity (PSR sort gate)” value is reported as “high polyreactivity”. The entry for “KVQLVESGGGLVQAGGSLRLSCAASGFIFYRNTMGWYRQAPGKEREFVAAIRWRGGSTYYADSVKGRFTISRDNAKNTVYLQMNSLKPEDTAVYYCAADTRPGYSGFEYWGQGTQVTVSS” is “high polyreactivity”; for “KVQLVESGGGLVQAGGSLRLSCAASGFTFEGYAMGWYRQAPGKEMELVAAISSNGGRTYYADSVKGRFTISRDNAKNTVYLQMNSLKPEDTAVYYCNARRAYSGPDYDYYHGRRYDYWGQGTQVTVSS” it is “low polyreactivity”. The entry for “KVQLVESGGGLVQAGGSLRLSCAASGGIFYYYAMGWYRQAPGKERELVAAISSGGGTNYADSVKGRFTISRDNAKNTVYLQMNSVKPEDTAVYYCAADQGRDTGYDYWGQGTQVTVSS” is “low polyreactivity”; for “KVQLVESGGGLVQAGGSLRLSCAASGLIFPAYTIGWYRQAPGKEREMVAAISRSGGSTYYADSVKGRFTISRDNAKYTVYLEMNSLKPEDTALYYCAAGYPGYDSYYKFYYWGQGTQVTVSS” it is “high polyreactivity”; for “KVQLVESGGGLVQAGGSLRLSCAASGLILRRYAMGWSRQAPGKEREFVARITWSGSRTYYADSVKGRFTISRDYGKNTVYLQMKSLKPEDSAFYYCAAVGRLARRDYWGQGTQVSVSS” it is “high polyreactivity”. The entry for “KVQLVESGGGLVQAGGSLRLSCAASGLTFSFYAMGWYRQAPGKERELVAAITYSGDSTYYADSVKGRFTISRDNAKNTVYLQLNSLKPEDTAVYYCAAYVYQTPHSLHIYEYWGQGTQVTVSS” is “low polyreactivity”; for “KVQLVESGGGLVQAGGSLRLSCAASGRIFYYNAMGWYRQAPGKERELVAVITGGGSTNYADSVKGRFTISRDNAKNTVYLQMNSLKPEDTAGYYCAARRAWGTKYHGYDYWGQGTQVNVSS” it is “low polyreactivity”. Take “KVQLVESGGGLVQAGGSLRLSCAASGSIFTYYAMGWDRQAPGKERELVAAISIGGRTDYADSVKGRFTISRDNAKNTVSLQMNSLKPEDTAVYYCVAKGHLDSGGYEYYYWRQGTQVTVSS”: the “polyreactivity (PSR sort gate)” value is “low polyreactivity”.

For the sequence “KVQLVESGGGLVQAGGSLRLSCAASGSTFSLYAMGWYRQAPGKERELVASIRWSGGRTYYADSVKGRFTISRDNAKNTVYLQMKSLKPEDTAVYYCAAAWRYGYGYWGQGTQVTVSS”, the “polyreactivity (PSR sort gate)” value is “high polyreactivity”. Take “KVQLVESGGGLVQAGGSLRLSCAASGYIVSYYDMGWYRQAPGKERELVAAITAGVAGTYYADSVKGRLTISRDNAKNSVYLQMNSLTPEDTAVFYCAADRYITTVVRMYYSGQGTQVTVSS”: the “polyreactivity (PSR sort gate)” value is recorded as “low polyreactivity”. As to “KVQLVESGGGLVQAGGSLRLSCADSGIFRYYAMGWYRQAPGKEREFVAAMTRGGSTNYADSVKGRFTISRDNAKNSVYLQMNSLKPEDTEVYYCARDGYREFDWGQGTQVTVSS”, the “polyreactivity (PSR sort gate)” value is “high polyreactivity”.

For the sequence “KVQLVESGGGLVQAGGSLRLSCPASGITFYRYVMGWYRQAPGTERELVAAISSGGRTYYADSVKGRFTISRDNAKNTVYLQMNSLKPEDNAVYYCNRAAFQTRYESWGQGTQVTVSS”, the “polyreactivity (PSR sort gate)” value is “high polyreactivity”. As to “KVQLVESGRGLVQAGGSLLLICAASGSTFVDYAMGWYRQAPGKERELVAGINVSGGSTYYSDYVKGSFTISRDNSNNPVYLQMNSLNPEDTAVYYCAKVVSNRLALPAWDYNYWGQGTKVTVSS”, the “polyreactivity (PSR sort gate)” value is listed as “low polyreactivity”.

Turning to “KVQLVESGVGLVQAGGSLRLSCAPSGSIFKYYAMGWYRQAPGKERELVAAITDRGSSTYYADSVKGRFTISRDNAKTTVYLQMNSLKPEDTAVYYCAAETYVCIYWPYVKYYYWGQGTQVNVSS”, the “polyreactivity (PSR sort gate)” value is on record as “high polyreactivity”. “KVQLVESVGGLVQAGGSLRLSCAASGRIFGVNAMGWYRQAPGKERELVAAIRSGDSTNYADSVKGRFTISRDNAKNTVYLQMNSLKPEDTAVYYCATDLYFDLRYDYWGQGTQVTVSS”: the “polyreactivity (PSR sort gate)” value was “low polyreactivity”. The entry for “KVQVVESGGGFVQAGGSLGLSCAASGRIFGVYAMGWYTQAPGKERELVAAINYSGTRTYYADSVKGRFTISRDNGKNTVYLQMNSLKPEDSAVYYCGARRGSYSVTEYWGQGTQVNVSS” is “high polyreactivity”; for “LVHLQESGGGLVLAGGGLRLSCAASGNIFTYVIMGWYRQPAGKERELVAAITYGTITNYADSVKGPFTISRDNAKNTVYLQMNCLKPEDTAVYHCAVQSTRIVPRHYYCGQGTQVTVSS” it is “high polyreactivity”. The entry for “LVQHVESGGGIVQAGGSLRLTCAASGSIFASYAMGWYRLAPGKEREFVAAISRRSGSTYYSDSVKGRFTISRDYAKNTVYLQLKSLKPEDTAVYDCAGALYYGYDHYNYWGQGTQVTVSS” is “high polyreactivity”; for “LVQHVESGGGLVKAGGSLRLTCSASGITFARYAMGWYRQAPGNERELVAAISRSVGSTYADSVKGRFTTSRDNAKNTVYLKMNSLKPEDTAVYYCHARYKSRLYPRYDYWGQGTQVTVSS” it is “high polyreactivity”; for “LVQLLESGGGLVQAGGSLRLSCAASGRIFTGYALGWDRQAPGKDRELVASITWRGASTYYADSVKGRFTISRDNAKTTVFLQKNCLNPEDTAVDYCNVGASARKAYEYWGQGTQVTVSS” it is “high polyreactivity”. The same measure for “LVQLQESAGGLVQAGGSLRLSCAASGSISVTRAMCWYRQAPGNERELVASTTGGSNNADSVNGRFTISRDNAKNTVYLQMNSLKPEDTAVYYCAAAVGVGRSGGTYDYWGQGTQVTVSS”: “low polyreactivity”. With “LVQLQESGGGLVQAGGSLRLSCAASGTISQGGYMGWYRQAPGKERELVASINVGGSTNYADSVKGRFTISRDNAKNTVYLQMNSLKPEDNAVYYCAVWGRNRLQLSYWGQGTQVTVSS”, the “polyreactivity (PSR sort gate)” value is “low polyreactivity”. For the sequence “LVQLVESGGGLVQAGGSLRLICAAYGSIFALNSLGWYSQAPGKERELVAAISRGDGTKYEHTVKGRFTISRDNAKTTVYLQMTSLKPEYTAVYYCAKDYWFRWRWPYNHWGLGTQVTVSS”, the “polyreactivity (PSR sort gate)” value is given as “low polyreactivity”. Turning to “LVQLVESGGGLVQAGGSLRLSCAASGRIFLKYAMGWYRQSPGKERELVAAISRRGASTYYADSVKGRFTISRDYGKNSVYLLMKSLKPDDTAVYYCNARTSSGMDYWGQGTQVTVSS”, the “polyreactivity (PSR sort gate)” value is reported as “high polyreactivity”. On to “LVQLVESGGGLVQAGGSLRLSCAASGSIFRRYAMGWYRQAPGKERELVAAISRNSGRTYYADSVKGRFTISRDNAKNTVYLQTNSLKPEDTAVYYCAKLTLSSRWYYIYDYWGQGTQVTVSS”, for which the “polyreactivity (PSR sort gate)” value was “high polyreactivity”. The entry for “PVQLQESGGGLVQAGGSLRLSCAASGNIFDADIMGWYRQAPGKERELVACIADGGSTNYADSVKGRFTISRDNAKNTVYLQMNSLKPEDTAVYYCAAIAYPYIPNCFDYDSDYFFRGQGTQVTVSS” is “low polyreactivity”; for “PVQLVESGGGLVEAGGSLLLSCAASGSTFREYTMGWYRQAPGKERELVAAITNSGGSTYYADSVKGRFTISRDIAKYTVYLQMNSLKPDDTSVYYFAAEVGIVDYDYWGQGTKVTVSS” it is “low polyreactivity”; for “PVQLVESGGGLVQAGGRLRLSCASSGLTFYYYAMGWYLQSPGKESELVAALSRSGGSTYYADSVKGRFTISRDNAQNTVYLQMISLKPEDTAVYYCAAREPYEVLLYYYEDYYWGQGTQVTVSS” it is “high polyreactivity”. Turning to “PVQLVESGGGLVQAGGSLRLSCAASGFTFDENAMGWYRQAPGITYSGASTYYADSVKGPYTISRANAQNTVYLQMNSLKPEDTAVYYCAAEVVAQMNYWGQGTQVTVSS”, the “polyreactivity (PSR sort gate)” value is reported as “low polyreactivity”.

“PVQLVESGGGLVQAGGSLRLSCAASGITFYRYMGWYRQAPGKERELVASITGRGGSTYYADSVKGRFTISRDNAKNTVYLQMNSLKPEDTAVYYCAAVFPTKSSTWYDFWGEGTQVTVSS”: the “polyreactivity (PSR sort gate)” value was “high polyreactivity”.

Turning to “PVQLVESGGGLVQAGGSLRLSCAASGRTVGYAMGWYRQSPWKERELVARINRTTGSTYYADSVKGRFTISRDNAKNTVYLQMKRLKPEDTAVYYCNAKSYYYSRWSRYYCTGYYYWGQGTQVTVSS”, the “polyreactivity (PSR sort gate)” value is on record as “high polyreactivity”. Take “PVQLVESGGGLVQAGGSLRLSCAASGSIFTAYDMGWYRQAPGKERELVAAINVSAGTTYYADSVKGRFTISRDNAKKTVYLQMISLIPEDTAVYYCAARDISLNAVGLPKEYNRDYWGQGTQVTVSS”: the “polyreactivity (PSR sort gate)” value is given as “low polyreactivity”. The same measure for “PVQLVESGGGLVQAGGSLRLSCAASGSTFKRYAMGWYRQAPGKERELVAAISSGGTTYYADSVTGRFTISRDNAKNTVYLQMISLKPEDSAVYDCIARKYGWDQRILIYDYWGQGTQVTVSS”: “high polyreactivity”; for “PVQLVESGGGLVQAGGSLRLSCAASGSTFLYSAMGWYRQAPGKERELVAGISAAGGSSYYADAVKGRFTISRDNAKNTVYIQMNSLKPEDTAVYYCNATRVVIRHSYDYWGQGTQVTVSS”: “high polyreactivity”; for “PVQLVESGGGLVQAGGSLRLSCAASGSTIPSYAMGWYRQAPGKERELVASITYSDGTTRYADSVKGRFTISRDNAKNTVYLQMNSLKPEDTAVYYCNAVYYREGMDYWGQGTQVTVSS”: “low polyreactivity”. The entry for “PVQLVESGGGLVQAGGSLRLSCAASGTIFFSNAMGWYRQAPGKEREFVATITSSGVGTYYADSVKGRFTISRDNAKNTVYLQMNSLTPEDTAVYYCAADLTISYSQEYYYWGQGTQVTVSS” is “low polyreactivity”; for “PVQLVESGGGLVQAGGSLSLICAASGRIFYMYAMRCYRPAPAKERELVAAITWSGGSTTYADSVKGRFTISRDNAKNTVYLQMNSLKPEDTSVYYCNAEGWIFPSFSPMDYWGQGTQVTVSS” it is “low polyreactivity”. The same measure for “PVQLVESGGGLVQAGGSLSLTCAASGIIFPVYAMGWYIQAPGKERELVAAITYSGDRTYYADSVKGRFTISRDNAKYTVYLQMNSLKPEDTAVDYFNARFGVWPYFYNEDDYLGQGTQVTVSS”: “low polyreactivity”.

Turning to “PVQLVESGGGLVQAGVSLRLSGAASGFIFYYYAMGWYSQAPGKEREFVAAISQSVGSTYYADSVKGRFTISRDNANNTVYLQMNSLKPADTAVYYCNARGWIPARGWDDYYWGQGTQVTVSS”, the “polyreactivity (PSR sort gate)” value is “high polyreactivity”.
